Measurements taken from article PMC8446797 (The Journal of Biological Chemistry, 2021).
No end group written: not given here. 5Flu = C-terminal fluorescein

Experiments:
CRIP1a = target: T1, CRIP1a (Rattus norvegicus, UniProt Q5M7A7); assay: Fluorescence polarization of fluorescein-labeled peptides binding to CRIP1a; settings: 20 nM peptide, CRIP1a 0–250 μM, 30 min, room temperature, 25 mM Hepes pH 7.5, 100 mM NaCl, 5 mM MgCl2, 0.1 mM EDTA, 2 mM TCEP, 10% glycerol, λex 470 nm, λem 530 nm, biological quadruplicates, three separate days
T1 sequence (Q5M7A7 1-164): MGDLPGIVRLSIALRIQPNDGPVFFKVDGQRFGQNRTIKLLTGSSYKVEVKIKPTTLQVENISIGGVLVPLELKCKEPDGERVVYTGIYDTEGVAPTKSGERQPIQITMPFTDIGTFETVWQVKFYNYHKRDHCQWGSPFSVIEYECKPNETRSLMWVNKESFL

[1] = target: N-terminally myristoylated 9-mer peptide mimicking the Gαi N terminus (Myr-…-5Flu); assay: fluorescence polarisation

| Substance | binding to CRIP1a (in words) (CRIP1a) | Kd [1] [µM] |
| --- | --- | --- |
| nonmyristoylated Gα peptide: corresponding nonmyristoylated peptide used as the control (GCTLSAEDK-5Flu) | unable to readily bind | – |
| 5Flu-SQGKSSC(Farn)-OMe [Rheb-Farn peptide] | inability to bind | – |
| Myr-GTASSLVSPK-5Flu [Myr-NHPH3 peptide] | unable to readily bind | – |
| Cannabinoid receptor interacting protein 1a (from UniProt Q5M7A7 1-164) (natural protein) | – | 21.2 |
